Reference: US20220064286A1 (Genentech, published 2022)
Changes are numbered by the printed parent chain. Names and notes keep the numbering of the source. Like-named read-outs stand apart in the source and are kept apart here. Blank lines part the entries; values can stand above or below the binder they belong to.

How the values were obtained:
human TIGIT protein [1] = target: T1, human TIGIT protein (human, UniProt Q495A1 22-141, limits assumed); experiment: SPR, captured mAb
T1 construct: Recombinant protein (Genentech) used in ELISA screening and as SPR analyte; also called TIGIT antigen
T1 sequence: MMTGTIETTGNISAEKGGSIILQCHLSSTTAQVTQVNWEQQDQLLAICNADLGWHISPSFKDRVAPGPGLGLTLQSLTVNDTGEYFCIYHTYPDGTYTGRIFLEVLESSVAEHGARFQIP
Excerpt: (§1) To prevent unwanted pyroglutamate formation for clones 4.1A4, 4.1 D3, and 7.4A3 (also referred to as 1A4, 1 D3, and 4A3, respectively) and to resolve the issue of unpaired cysteine residues for clones 4.1A4 and 7.4A3, the following optimized anti-TIGIT antibody variants were generated: 4.1A4.C96S.Q1E, 4.1A4.C96Y.Q1E, 4.1 D3.Q1E, 7.4A3.C96S.Q1E, and 7.4A3.C96Y.Q1E (also referred to as 1A4.C96S.Q1E, 1A4.C96Y.Q1E, 1 D3.Q1E, 4A3.C96S.Q1E, and 4A3.C96Y.Q1E, respectively). As described below in Table 2, the affinities of these five optimized variants for human and cynomolgus monkey (cyno) TIGIT were then determined by Surface Plasmon Resonance (SRP) (BIACORE™ analysis) and compared to that of their respective parental clones.
(§2) Briefly, a series S CM5 biosensor chip was activated with N-ethyl-N′-(3-dimethylaminopropyl)-carbodiimide hydrochloride (EDC) and N-hydroxysuccinimide (NHS) reagents according to the supplier's (GE Healthcare Biosciences, Piscataway, N.J.) instructions, and a human antibody capture kit was applied to couple goat anti-human Fc IgGs in order to achieve approximately 10,000 response units (RU) on each flow cell, followed by blocking un-reacted groups with 1M ethanolamine.
(§3) (flow rate: 30 μl/min) with no regeneration between injections. The sensorgrams were recorded and evaluated by BIAcore™ T200 Evaluation Software (version 2.0) after subtraction of reference cell signal. Association rates (kₒₙ) and dissociation rates (koff) were calculated using a simple one-to-one Langmuir binding model. The equilibrium dissociation constant (KD) was calculated as the ratio koff/kₒₙ.

[2] = target: T2, cynomolgus monkey (cyno) TIGIT protein (cynomolgus monkey, UniProt A0A7N9I9V4 89-209); experiment: SPR, captured mAb
T2 sequence (A0A7N9I9V4 entry or part of it): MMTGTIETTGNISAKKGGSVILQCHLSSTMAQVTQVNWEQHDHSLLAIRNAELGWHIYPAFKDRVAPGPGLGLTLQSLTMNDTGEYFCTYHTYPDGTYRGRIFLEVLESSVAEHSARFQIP
Excerpt: as §1, §2, §3

human TIGIT protein [3] = target: T1, human TIGIT protein; experiment: SPR, bivalent affinity
[4] = target: T2, cynomolgus monkey (cyno) TIGIT protein; experiment: SPR, bivalent affinity
human TIGIT protein [5] = target: T1, human TIGIT protein; experiment: SPR, monovalent affinity
[6] = target: T2, cynomolgus monkey (cyno) TIGIT protein; experiment: SPR, monovalent affinity
[7] = target: T3, cynomolgus TIGIT on CHO cells (cynomolgus monkey, UniProt A0A7N9I9V4 89-312); experiment: FACS on CHO cells expressing cyno TIGIT, FITC anti-hIgG detection
T3 construct: whole, on cells; also called CHO-cyTIGIT; cyTIGIT
T3 sequence (A0A7N9I9V4 entry or part of it): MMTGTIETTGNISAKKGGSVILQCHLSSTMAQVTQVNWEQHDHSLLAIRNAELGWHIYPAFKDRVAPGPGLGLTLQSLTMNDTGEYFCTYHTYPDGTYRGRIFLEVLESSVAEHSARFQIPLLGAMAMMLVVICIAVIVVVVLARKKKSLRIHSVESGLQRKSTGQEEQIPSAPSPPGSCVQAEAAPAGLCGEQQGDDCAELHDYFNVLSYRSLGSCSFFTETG
Method: Additional in vitro binding studies of the OMT- and SD-derived anti-TIGIT antibody clones were conducted. The OMT- and SD-derived anti-TIGIT clones were tested for binding to human and cyno TIGIT expressed on the surface of CHO cells by FACS analysis. CHO cells were transfected with full-length human TIGIT (CHO-hTIGIT) or cynomologous TIGIT (CHO-cyTIGIT). The TIGIT-expressing CHO cells were incubated with each anti-TIGIT antibody at the indicated concentrations and then detected via a FITC-labeled anti-hIgG antibody (see FIG. 1A) using standard methods. The results, shown in Table 6 and FIGS. 1B-1E, corroborate the results from the BIACORE™ analysis, described above.

[8] = target: T3, cynomolgus TIGIT on CHO cells; experiment: FACS blocking assay: labelled PVR-Fc (blocked ligand; text: cyPVR, scheme of FIG. 4A prints hPVR.Fc) on CHO cells expressing cyno TIGIT
Method: (§4) These studies were further validated in CHO-TIGIT PVR blocking experiments in which TIGIT-expressing CHO cells were incubated with labeled PVR-Fc fusion protein in the presence of anti-TIGIT antibody or an human IgG1 control (FIG. 4A).

[9] = target: T3, cynomolgus TIGIT on CHO cells; experiment: FACS blocking assay: labelled PVR-Fc (blocked ligand) on CHO cells expressing cyno TIGIT
Method: as §4

human TIGIT protein [10] = target: T1, human TIGIT protein; experiment: SPR, captured mAb; remark: listed apart in the source
Method: as §2, §3
(§5) The first humanized versions, h6B2, L1H1, h10A5.L1H1, h7E7, L1H1, and h15C8.L1H1, which contain both rat CDRs and framework residues at Vernier positions, and the fully humanized versions, h6B2.L2H5, h10A5.L4H4, h7E7.L5H9, and h15C8.L5H9, which contain only rat CDRs were subject to BIAcore affinity measurement by comparison with original rat antibodies, rat6B2, rat10A5, rat7E7 and rat 15C8. For binding affinity determinations of TIGIT antibodies against human TIGIT, cynomolgus monkey TIGIT and human alanine-scanned TIGIT mutants by single-cycle kinetics, Surface Plasmon Resonance (SRP) measurement with a BIACORE™-T200 instrument was used, as described above.

[11] = target: T2, cynomolgus monkey (cyno) TIGIT protein; experiment: SPR, captured mAb; remark: listed apart in the source
Method: as §2, §3, §5

hTIGIT mutant H76A [12] = target: T4, hTIGIT mutant H76A (human, UniProt Q495A1); experiment: SPR (BIACORE), N=2
T4 sequence (TIGIT, looked up): T1 sequence with H55A

hTIGIT mutant H76A [13] = target: T4, hTIGIT mutant H76A; experiment: SPR (BIACORE) KD normalized to WT, N=2

B2: 7.4A3.C96Y.Q1E (antibody, V domains shown)
VH: EVQLVQSGSDLKKPGASVRVSCKASGYTFTSYPMNWVRQAPGHGLEWMGWINTNTGNPTYVQGFTGRFVFSLDTSVNTAYLQISSLKAEDTAVYFCARTGGHTYDSYAFDVWGQGTMVTVSS
VL: DIQLTQSPTFLSASVGDRVTITCRASQVISSSLAWYQQNPGKAPKLLIYAASTLQSGVPSRFSGSGSGTEFTLTISSLQPEDFVTYYCQHLHGYPYNFGQGTKVEIK
notes: No entry is tied to this variant by name; built from 7.4A3 with the two named changes (Q1E in the heavy chain, C96Y in HVR-L3); also called 7.4A3.Q1E.C96Y
Kd (human TIGIT protein [1]): 98000 pM | koff (human TIGIT protein [1]): 0.0365 s⁻¹ | kon (human TIGIT protein [1]): 372000 M⁻¹ s⁻¹ | Kd [2]: 35600 pM | koff [2]: 0.014 s⁻¹ | kon [2]: 395000 M⁻¹ s⁻¹ | Kd (human TIGIT protein [5]): 98100 pM | Kd [6]: 35500 pM

B5: h6B2.L1H1 (antibody, V domains shown)
VH: EVTLKESGPALVKPTQTLTLTCTFSGFSLSTYGMGVSWIRQPPGKALEWLASIWWNGNTYYNPSLKSRLTVTKDASKNQAVLTMTNMDPVDTATYYCAHTGGAVITWFAYWGQGTLVTVSS
VL: DIQMTQSPSSLSASVGDRVTITCKASQSVGKNIAWYQQKPGKSPKLLIYYASNRYTGVPSRFSGSGSGTDFTFTISSLQPEDIATYYCQHIYNSPYPFGQGTKVEIK
notes: Humanized; FR/HVR pieces in order; also called h1.6B2.L1H1
Kd (human TIGIT protein [10]): 540 pM | koff (human TIGIT protein [10]): 0.00253 s⁻¹ | kon (human TIGIT protein [10]): 4.67e+06 M⁻¹ s⁻¹ | Kd [11]: 960 pM | koff [11]: 0.00118 s⁻¹ | kon [11]: 1.23e+06 M⁻¹ s⁻¹ | Kd (human TIGIT protein [5]): 540 pM | Kd [6]: 960 pM

B6: h10A5.L1H1 (antibody, V domains shown)
VH: B5 VH with S30T, K66R, A75T
VL: EIVMTQSPATLSVSPGERATLSCKASQSVGKNIAWYQQKPGQSPRLLIYYASNRYTGVPARFSGSGSGTEFTLTISSLQSEDFAVYYCQHIYNSPYPFGQGTKVEIK
notes: Humanized; FR/HVR pieces in order; also called h1.10A5.L1H1
Kd (human TIGIT protein [10]): 520 pM | koff (human TIGIT protein [10]): 0.00238 s⁻¹ | kon (human TIGIT protein [10]): 4.57e+06 M⁻¹ s⁻¹ | Kd [11]: 860 pM | koff [11]: 0.00127 s⁻¹ | kon [11]: 1.47e+06 M⁻¹ s⁻¹ | Kd (human TIGIT protein [5]): 520 pM | Kd [6]: 860 pM

B7: h15C8.L1H1 (antibody, V domains shown)
VH: EVQLVQSGAEVKKPGASVKVSCKASGYTFTEHSIYWLRQAPGQRLEIIGRIDPKNGRTYFVDKFKNRATLTTDTSASTAYMELSSLRSEDTAVYFCARIDGFYFDFWGQGTLVTVSS
VL: DIQLTQSPSFLSASVGDRVTITCKGSQNVNKYLVWYQQKPGKAPKLLIYSTDNLQSGIPSRFSGSGSGTEYTLTISSLQPEDFATYFCYQYNNGFTFGQGTKVEIK
notes: First humanized version; FR/HVR pieces in order; also called h1.15C8.L1H1
Kd (human TIGIT protein [10]): 390 pM | koff (human TIGIT protein [10]): 0.000357 s⁻¹ | kon (human TIGIT protein [10]): 922000 M⁻¹ s⁻¹ | Kd [11]: 940 pM | koff [11]: 0.000464 s⁻¹ | kon [11]: 493000 M⁻¹ s⁻¹ | Kd (human TIGIT protein [5]): 580 pM | Kd [6]: 1390 pM

B9: h7E7.L5aH9a (antibody, V domains shown)
VH: B7 VH with H32Y, L37V, I48M, F60Y, A68V, L70I, T72R, F95Y, D100Y
VL: B7 VL with S50N, I58V, F87Y
notes: Final humanized 7E7; keeps rat VH I47 and VL Y71; FR/HVR pieces
Kd [11]: 310 pM | koff [11]: 0.000182 s⁻¹ | kon [11]: 591000 M⁻¹ s⁻¹ | Kd (hTIGIT mutant H76A [12]): 1000 pM | Binding affinity drop vs. WT (hTIGIT mutant H76A [13]): 2.5 fold

Results, then the binder that gave them:

Kd (human TIGIT protein [1]): 3440 pM | koff (human TIGIT protein [1]): 0.00104 s⁻¹ | kon (human TIGIT protein [1]): 302000 M⁻¹ s⁻¹ | Kd [2]: 2090 pM | koff [2]: 0.000699 s⁻¹ | kon [2]: 334000 M⁻¹ s⁻¹ | Kd (human TIGIT protein [3]): 98 pM | Kd [4]: ≤ 50 pM | Kd (human TIGIT protein [5]): 3600 pM | Kd [6]: 1600 pM | EC50 (read off the curve) [7]: ~1000 pM | IC50 (read off the curve) [8]: ~300 pM
B1: 7.4A3 (antibody, V domains shown)
VH: B2 VH with E1Q
VL: B2 VL with Y96C
notes: OMT rat-derived human antibody; also called 7.4A3.Q1.C96

Kd [2]: 12600 pM | koff [2]: 0.0169 s⁻¹ | kon [2]: 1.34e+06 M⁻¹ s⁻¹ | Kd [6]: 12600 pM | EC50 (read off the curve) [7]: ~500 pM | IC50 (read off the curve) [8]: ~90 pM
B3: 4.1A4.C96S.Q1E (antibody, V domains shown)
VH: EVQLVQSGSELKKPGASVKVSCKASGYTLTNYPMNWVRQAPGRGLEWMGWINTNTGSPAYAQDFTERFVFSLDTSVTTAYLQISSLKAEDTAVYYCARTAITSVYHFDYWGQGTLVTVSS
VL: DIQLTQSPSFLSASVGDRVTITCRASQGISSYLAWYQQKPGKAPRVLIYGATTLQSGVPSRFSGSESGTEFTLTISSLQPEDLATYYCQKLNSHPSSFGQGTKVEIK
notes: FR/HVR pieces in order; also called 4.1A4.Q1E.C96S

Kd [6]: > 100000 pM | binding result [9]: no binding (tested: about 20 nM)
B4: 4.1A4.C96Y.Q1E (antibody, V domains shown)
VH: B3 VH
VL: B3 VL with S96Y
notes: FR/HVR pieces in order; also called 4.1A4.Q1E.C96Y

Kd (human TIGIT protein [10]): 230 pM | koff (human TIGIT protein [10]): 0.000476 s⁻¹ | kon (human TIGIT protein [10]): 2.06e+06 M⁻¹ s⁻¹ | Kd [11]: 360 pM | koff [11]: 0.000152 s⁻¹ | kon [11]: 418000 M⁻¹ s⁻¹ | Kd (human TIGIT protein [5]): 330 pM | Kd [6]: 510 pM
B8: h7E7.L1H1 (antibody, V domains shown)
VH: B7 VH with H32Y, L37V, F60Y, T72A, A97T, D100Y
VL: B7 VL with S50N
notes: First humanized version; FR/HVR pieces in order; also called h1.7E7.L1H1
